Measured values as given in patent US20060234291A1 (MODPRO, published 2006).
Non-standard residues stand in square brackets, D forms with d. Nle = CCCC[C@H](N)C(=O)O; Orn = NCCC[C@H](N)C(=O)O

B1: LA-42h (peptide)
chain: Ac-NAAD[Nle]EAKIRHLAEK[Nle]AARGPVDAAQ[Nle]AEQLAKKFEAFARAG-NH2
modifications: also: two monomers associate antiparallel into four-helix bundle (dimer)
notes: two monomers associate antiparallel into a four-helix bundle
B2: KA-I (peptide)
chain: Ac-NAAD[Nle]EAAIKALAEK[Nle]AAKGPVDAAQ[Nle]AEQLAK[Orn]FEAFARAG-NH2
modifications: also: two monomers associate antiparallel into four-helix bundle (dimer)

Experiments:
[1] = target: the molecule itself; experiment: 1H NMR NOESY, self-association
Description: The secondary and tertiary structures of LA-42h were investigated by ¹H-NMR spectroscopy. The ¹H-NMR spectrum of LA-42h was assigned from the TOCSY and NOESY spectra recorded in H₂O:D₂O (90:10 v/v) containing 4 vol % of TFE-d₃ at 308 K using methods described in detail previously [S. Olofsson, L. Baltzer, Folding & Design 1996, 347-356]. Most of the spin systems of the amino acids were identified from the αH—NH region in the TOCSY spectrum and the sequential assignments of residues 5 to 19 and 23 to 41were obtained from the NH—NH region in the NOESY spectrum. Due to the cis-trans equilibrium of Pro21, an extra set of resonances with low intensity from the amino acids near the proline in the loop region was identified. The aH chemical shifts are diagnostic of secondary structure formation, and the measured values were compared to tabulated values for random coil conformations [D. S. Wishart, B. D. Sykes, F. M. Richards, J. Mol. Biol. 1991, 222, 311-333]. From their upfield shifts relative to the random coil values, two helical segments were identified in the sequence of LA-42h from […] Nle16 and from Ala25 to Arg40. A loop region was also assigned from the downfield shifts, or absence of deviation relative to random coil conformation, of the α protons. […]

[2] = target: the molecule itself; experiment: 1H NMR NOESY and CD spectroscopy, self-association
From the text: This is because NOEs only arise between nuclei separated by less than 5 Å [K. Wüthrich, NMR of proteins and nucleic acids, John Wiley & Sons, Inc., 1986] and the distances between Phe35 and Nle16, and between N15 and Lys19, are too long to give rise to NOEs within the monomer and too long to give rise to NOEs in a parallel dimer. […] The inventor concludes that KA-I forms an antiparallel dimer of helix-loop-helix hairpin motifs, and that residues in a and d positions are positioned in the hydrophobic core, whereas all other residues are solvent exposed.
CD spectra were recorded on a Jasco J-715 CD spectropolarimeter, in 0.1, 0.5, or 1 mm cuvettes in the interval from 280-190 nm at room temperature. Each spectrum is an average of six scans and the background was subtracted from the spectrum before the mean residue ellipticity at 222 nm was measured. A 1 mM stock peptide solution was prepared by dissolving the peptide in buffer, under the assumption that the lyophilized peptide contains 25% water. The pH was adjusted by addition of small amounts of 0.1 M-1 M NaOH or HCl. For the concentration dependent studies the stock peptide solution was diluted to the desired concentrations by pipetting. […] The concentration of the stock solution for the concentration dependent measurement was determined by quantitative amino acid analysis. […]

Protein | binding result [1] | binding result [2]
B1 | binds | 
B2 |  | binds
